Measurements from patent publication US20250333542A1 (Hoffmann-La Roche, published 2025).

Experiments:
[1] = molecular target: T1, Fc (kih)-IFNGR1 monomer (P1AF7104) (UniProt P15260 18-245); assay: SPR (Biacore 8K, 25 C), biotinylated Fc(kih)-IFNG captured on SA chip, Fc(kih)-IFNGR1 monomer as analyte, 1:1 Langmuir fit
T1 construct: Used as the soluble analyte in SPR; not shown: Fc (kih) part
T1 sequence (P15260 whole entry, species assumed, looked up): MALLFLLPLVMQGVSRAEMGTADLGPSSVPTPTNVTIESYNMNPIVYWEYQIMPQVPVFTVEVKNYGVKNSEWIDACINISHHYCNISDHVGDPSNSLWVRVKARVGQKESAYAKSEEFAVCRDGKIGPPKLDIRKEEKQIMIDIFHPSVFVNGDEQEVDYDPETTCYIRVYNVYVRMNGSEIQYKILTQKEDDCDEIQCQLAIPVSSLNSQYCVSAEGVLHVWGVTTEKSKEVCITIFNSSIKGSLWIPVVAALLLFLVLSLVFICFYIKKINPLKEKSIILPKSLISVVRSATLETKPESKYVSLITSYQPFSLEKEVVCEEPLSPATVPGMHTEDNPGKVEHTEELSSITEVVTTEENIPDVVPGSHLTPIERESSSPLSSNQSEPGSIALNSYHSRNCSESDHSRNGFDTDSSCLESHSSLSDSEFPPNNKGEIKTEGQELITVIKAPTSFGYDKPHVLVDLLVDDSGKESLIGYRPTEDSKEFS
Description: (§1) The binding behaviour of IFNG variants towards IFNGR1 and IFNGR1/2 was assessed by surface plasmon resonance (SPR). SPR experiments were performed on a Biacore 8K device at 25° C. with HBS-EP as running buffer (0.01 M HEPES pH 7.4, 0.15 M NaCl, 3 mM EDTA, 0.005% Surfactant P20, Biacore, Freiburg/Germany). […] IFNG mutation series compounds were immobilised at a concentration of 25 nM, 80 s contact time and 10 μL/min. Immobilisation levels up to 450 resonance units (RU) were used. Subsequently, decreasing concentrations (800-3.13 nM) of Fc (kih)-IFNGR1 monomer or Fc (kih)-IFNGR1/2 heterodimer were injected as a second analyte with a flow rate of 30 μL/min over 120 seconds and dissociation was monitored for 500 s. Bulk refractive index differences were corrected for by subtracting the response obtained in a reference flow cell, where no protein was immobilised. […]
(§2) To further evaluate analogous properties of wild-type IFNG and our engineered compound with C-terminal KRKRP (SEQ ID NO:1), we determined the binding affinities of IFNG variants towards IFNG receptors by SPR. […] As second analytes, either IFNGR1 monomer (P1AF7104) or IFNGR1/2 heterodimer (P1AF8126) were passed through the flow cell at different concentrations and dissociation constants (KD) were calculated based on observed association and dissociation behaviour.

[2] = molecular target: T2, Fc (kih)-IFNGR1/2 heterodimer (P1AF8126) (UniProt P15260 18-245; P38484 28-247, limits assumed); assay: SPR (Biacore 8K, 25 C), biotinylated Fc(kih)-IFNG captured on SA chip, Fc(kih)-IFNGR1/2 heterodimer as analyte, 1:1 Langmuir fit; IFNG KRKRP variant, IFNGR1/2 heterodimer as analyte
T2 construct: Used as the soluble analyte in SPR; also called Fc (kih)-IFNGR1/R2 heterodimer; IFNGR1/R2; not shown: Fc (kih) chain
T2 sequence (looked up) 1: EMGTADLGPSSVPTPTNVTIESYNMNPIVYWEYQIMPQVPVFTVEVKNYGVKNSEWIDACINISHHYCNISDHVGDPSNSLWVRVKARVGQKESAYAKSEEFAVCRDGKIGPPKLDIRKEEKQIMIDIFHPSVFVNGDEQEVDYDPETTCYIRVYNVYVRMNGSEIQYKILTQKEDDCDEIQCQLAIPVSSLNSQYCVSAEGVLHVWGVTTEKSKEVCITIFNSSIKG
T2 sequence (looked up) 2: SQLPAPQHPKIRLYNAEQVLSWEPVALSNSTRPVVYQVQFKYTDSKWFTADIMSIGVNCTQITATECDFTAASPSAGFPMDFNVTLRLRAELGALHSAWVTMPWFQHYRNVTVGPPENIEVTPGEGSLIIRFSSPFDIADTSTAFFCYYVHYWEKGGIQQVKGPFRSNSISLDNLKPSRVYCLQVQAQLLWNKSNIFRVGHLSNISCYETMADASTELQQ
Description: as §1, §2

B1: Fc (kih)-IFNG KRKRP (P1AG1550) (Fc fusion)
chain: QDPYVKEAENLKKYFNAGHSDVADNGTLFLGILKNWKEESDRKIMQSQIVSFYFKLFKNFKDDQSIQKSVETIKEDMNVKFFNSNKKKRDDFEKLTNYSVTDLNVQRKAIHELIQVMAELSPAAKTGKRKRP
modifications: biotinylated (site not stated)
notes: Produced as a C-terminal Fc (kih)-fusion protein; not shown: Fc (kih) chain (knob: S354C, T366W; hole: Y349C, T366S, L368A, Y410V as printed) and any linker
A Kd [1] of 0.154 µM and a Kd [2] of 0.0544 µM were found for B1 in this work.
